Where a chain is given by its changes, count along the chain named.
B1: AbG-TV (antibody, human IgG1, kappa, V domains shown)
VH: EVQLQESGPGLVKPSQTLSLTCTVSGYSISNDFAWNWIRQLPGKGLEWMGYISYKGNTRYQPSLKSRITISRDTSKNQFFLKLNSVTAADTATYYCVTASRGLPYWGQGTLVTVSS
VL: DIQMTQSPSSMSVSVGDRVTITCHSSQDITYNIGWLQQKPGKSFKGLIYHGANLDDGVPSRFSGSGSGTDYTLTISSLQPEDFATYYCVQYDEFPWTFGGGTKLEIKR
modifications: synthon TV on reduced interchain cysteines; average DAR 3.7 per ADC
B2: AbK-AAD (antibody, human IgG1, kappa, V domains shown)
VH: B1 VH with N31R, L41P, K55N, L103F, Y105W
VL: B1 VL with I33V, A52S, D56H, E93D
modifications: synthon AAD on reduced interchain cysteines; average DAR 2.8 per ADC
B3: AbK-LB (antibody, human IgG1, kappa, V domains shown)
VH: B1 VH with N31R, L41P, K55N, L103F, Y105W
VL: B1 VL with I33V, A52S, D56H, E93D
modifications: synthon LB on reduced interchain cysteines; average DAR 1.8 per ADC
B4: AbK-YY (antibody, human IgG1, kappa, V domains shown)
VH: B1 VH with N31R, L41P, K55N, L103F, Y105W
VL: B1 VL with I33V, A52S, D56H, E93D
modifications: synthon YY on reduced interchain cysteines; average DAR 1.7 per ADC
B5: AbG-AAD (antibody, human IgG1, kappa, V domains shown)
VH: B1 VH
VL: B1 VL
modifications: synthon AAD on reduced interchain cysteines; average DAR 3.4 per ADC
B6: AbK-TX (antibody, human IgG1, kappa, V domains shown)
VH: B1 VH with N31R, L41P, K55N, L103F, Y105W
VL: B1 VL with I33V, A52S, D56H, E93D
modifications: synthon TX on reduced interchain cysteines; average DAR 2.2 per ADC
B7: AbK-TV (antibody, human IgG1, kappa, V domains shown)
VH: B1 VH with N31R, L41P, K55N, L103F, Y105W
VL: B1 VL with I33V, A52S, D56H, E93D
modifications: synthon TV on reduced interchain cysteines; average DAR 2.4 per ADC
B8: AbA-ZZ (antibody, human IgG1, kappa, V domains shown)
VH: B1 VH with N31R, L41P, K55N, L103F
VL: B1 VL with T30N, Y31S, A52T, D92A, E93Q
modifications: synthon ZZ on reduced interchain cysteines; average DAR 1.3 per ADC
B9: AbK-CZ (antibody, human IgG1, kappa, V domains shown)
VH: B1 VH with N31R, L41P, K55N, L103F, Y105W
VL: B1 VL with I33V, A52S, D56H, E93D
modifications: synthon CZ on reduced interchain cysteines; average DAR 3.4 per ADC
B10: AbA-LB (antibody, human IgG1, kappa, V domains shown)
VH: B1 VH with N31R, L41P, K55N, L103F
VL: B1 VL with T30N, Y31S, A52T, D92A, E93Q
modifications: synthon LB on reduced interchain cysteines; average DAR 2.4 per ADC
B11: AbB-LB (antibody, human IgG1, kappa, V domains shown)
VH: B1 VH with L41P, L103F, Y105W
VL: B1 VL with T30N, Y31S, A52T, D92A, E93Q
modifications: synthon LB on reduced interchain cysteines; average DAR 1.8 per ADC
B12: AbA-WD (antibody, human IgG1, kappa, V domains shown)
VH: B1 VH with N31R, L41P, K55N, L103F
VL: B1 VL with T30N, Y31S, A52T, D92A, E93Q
modifications: synthon WD on reduced interchain cysteines; average DAR 1.8 per ADC
B13: AbA-ZT (antibody, human IgG1, kappa, V domains shown)
VH: B1 VH with N31R, L41P, K55N, L103F
VL: B1 VL with T30N, Y31S, A52T, D92A, E93Q
modifications: synthon ZT on reduced interchain cysteines; average DAR 2 per ADC
B14: AbG-YY (antibody, human IgG1, kappa, V domains shown)
VH: B1 VH
VL: B1 VL
modifications: synthon YY on reduced interchain cysteines; average DAR 2.2 per ADC
B15: AbK-WD (antibody, human IgG1, kappa, V domains shown)
VH: B1 VH with N31R, L41P, K55N, L103F, Y105W
VL: B1 VL with I33V, A52S, D56H, E93D
modifications: synthon WD on reduced interchain cysteines; average DAR 1.7 per ADC
B16: AbA-TV (antibody, human IgG1, kappa, V domains shown)
VH: B1 VH with N31R, L41P, K55N, L103F
VL: B1 VL with T30N, Y31S, A52T, D92A, E93Q
modifications: synthon TV on reduced interchain cysteines; average DAR 3.7 per ADC
B17: AbG-LB (antibody, human IgG1, kappa, V domains shown)
VH: B1 VH
VL: B1 VL
modifications: synthon LB on reduced interchain cysteines; average DAR 2.5 per ADC
B18: AbG-WD (antibody, human IgG1, kappa, V domains shown)
VH: B1 VH
VL: B1 VL
modifications: synthon WD on reduced interchain cysteines; average DAR 3.4 per ADC
B19: AbK-AAA (antibody, human IgG1, kappa, V domains shown)
VH: B1 VH with N31R, L41P, K55N, L103F, Y105W
VL: B1 VL with I33V, A52S, D56H, E93D
modifications: synthon AAA on reduced interchain cysteines; average DAR 1.6 per ADC
B20: AbB-WD (antibody, human IgG1, kappa, V domains shown)
VH: B1 VH with L41P, L103F, Y105W
VL: B1 VL with T30N, Y31S, A52T, D92A, E93Q
modifications: synthon WD on reduced interchain cysteines; average DAR 1.6 per ADC
B21: AbG-AAA (antibody, human IgG1, kappa, V domains shown)
VH: B1 VH
VL: B1 VL
modifications: synthon AAA on reduced interchain cysteines; average DAR 1.9 per ADC

Legend:
[1] = target: human EGFR (huEGFR) over-expressed on mcl-1-/- mouse embryonic fibroblasts (human, UniProt P00533 25-1210); experiment: cell-based or functional assay
[2] = target: EGFR on EGFR positive non-small cell lung cancer cells NCI-H1650 (UniProt P00533 25-1210); experiment: cell-based or functional assay

Binder	huEGFR+ mcl-1-/- MEF EC50 [1] [nM]	H1650 CTG-3D EC50 [2] [µg/mL]	H1650 GFP Flourescence EC50 [2] [µg/mL]
B1	2.6	0.03	0.04
B2	0.4	0.01	0.06
B3	17	1.23	1.33
B4	47	0.49	1.09
B5	108	0.02	0.03
B6	0.79	1.07	1.47
B7	0.15	0.05	0.16
B8	186	1.86	1.18
B9	0.1	0.08	0.21
B10	27	4.05	2.48
B11	31	1.07	2.38
B12	304	23.6	7.62
B13	104	0.35	1.13
B14	> 500	0.4	1.1
B15	35	4.36	2.57
B16	3	0.34	0.69
B17	24	1.68	1.62
B18	5.8	2.03	0.36
B19	3.4	0.11	0.16
B20	23	2.69	1.01
B21	220	0.12	0.17
